Assay results taken from patent US8822165B2, “Method for producing cAMP using chimeric olfactory receptor” (Panasonic Corporation, priority 2010, dated 2014).

How the values were obtained:
HEK293T cells [1] = assay: cAMP production by mOREG-derived receptors expressed in HEK293T cells, eugenol as agonist (Experiment 1); type: cell-based; conditions: eugenol 300 μM (Table 5)
Procedure: Subsequently, the HEK293T cells were transfected with the above-mentioned three plasmids by a lipofection method. The HEK293T cells were incubated for 48 hours, and the β1AR consisting of the protein represented by SEQ ID NO: 03 was expressed on the cell membrane of the HEK293T cell.
The abbreviation “IBMX” means 3-isobutyl-1-methylxanthine. The IBMX is one of the phosphodiesterase inhibitors. The IBMX stabilizes cAMP, which is unstable.
The expression was conducted similarly to that of the step 2 of the reference example 1 except that the plasmid (Rho-mOREG) was used instead of the plasmid (β1AR). In this way, the Rho-mOREG (SEQ ID NO: 34) was expressed on a cell membrane.
Based on the measured cAMP concentration, a concentration increase value was calculated in accordance with the following equation: (Concentration increase value)=(the cAMP concentration measured when the concentration of the eugenol was 300μM)−(the cAMP concentration measured when the concentration of the eugenol was 0 μM)

HEK293T cells [2] = assay: as above; type: cell-based

B1: Rho-myc-mOREG: mouse olfactory receptor for eugenol with N-terminal Rho tag and myc epitope tag (protein)
chain: MNGTEGPNFYVPFSNKTGVVEQKLISEEDLEFMTLSDGNHSGAVFTLLGFSDYPELTIPLFLIFLTIYSITVVGNIGMIVIIRINPKLHIPMYFFLSHLSFVDFCYSSIVAPKMLVNLVTMNRGISFVGCLVQFFFFCTFVVTESFLLGVMAYDRFVAIRNPLLYTVAMSQRLCAMLVLGSYAWGVVCSLILTCSALNLSFYGFNMINHFFCEFSSLLSLSRSDTSVSQLLLFVFATFNEISTLLIILLSYVLIVVTILKMKSASGRRKAFSTCASHLTAITIFHGTILFLYCVPNSKNSRHTVKVASVFYTVVIPMLNPLIYSLRNKDVKDTVKKIIGTKVYSS
modifications: Rho-myc-mOREG
concentration increase value of the cAMP (HEK293T cells [1]): 0.0060
concentration increase value of the cAMP (HEK293T cells [2]; eugenol 30 μM): 0.0028
concentration increase value of the cAMP (HEK293T cells [2]; eugenol 1000 μM): 0.0190
